Data as given in the supplement of paper PMC10724198.
± gives the standard deviation of the averaged measurements.

Legend:
Saccharomyces cerevisiae [1] = test: protein stability index of tFT-peptide fusion (C-terminal peptide) (PSI (0-1 scale)); higher = more stable (slower turnover)
Procedure: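 MPS profiling in S. cerevisiae of the tFT-X12 degron library: putative degron peptides plus stable controls, 12 aa, fused to the C-terminus of a sfGFP-mCherry timer. Cells are FACS-sorted into 8 mCherry/sfGFP bins and deep-sequenced. PSI runs from 0 (unstable) to 1 (stable). Backgrounds are wild type, das1Δ and doa10Δ at 30 °C, and wild type, das1Δ, cdc34-1 and cdc53-1 at 37 °C; 2-3 technical replicates each.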

Saccharomyces cerevisiae [2] = test: as above; conditions: genetic background: wild type; temperature: 30 C
[3] = genetic background: cdc34-1, temperature: 37 C
[4] = genetic background: cdc53-1, temperature: 37 C
[5] = genetic background: das1 deletion, temperature: 30 C
[6] = genetic background: das1 deletion, temperature: 37 C
[7] = genetic background: doa10 deletion, temperature: 30 C
[8] = genetic background: wild type, temperature: 30 C
[9] = genetic background: wild type, temperature: 37 C
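Further: PSI is a weighted mean of sequencing reads over stability bins, variants kept only with over 10 reads, mCherry proximal and sfGFP distal, peptide attached via GGGS linker.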

Row | Sequence | protein stability index (Saccharomyces cerevisiae [1]; [3]) | protein stability index (Saccharomyces cerevisiae [1]; [4]) | protein stability index (Saccharomyces cerevisiae [1]; [5]) | protein stability index (Saccharomyces cerevisiae [1]; [6]) | protein stability index (Saccharomyces cerevisiae [1]; [7]) | protein stability index (Saccharomyces cerevisiae [1]; [8]) | protein stability index (Saccharomyces cerevisiae [1]; [9]) | protein stability index (Saccharomyces cerevisiae [2])
1 | RHQTDIVTATQK | 0.694 ± 0.05 | 0.724 ± 0.026 | 0.636 ± 0.036 | 0.717 ± 0.012 | 0.642 ± 0.062 | 0.685 ± 0.014 | 0.70375 ± 0.00022 | 0.562 ± 0.097
2 | PGVWVVILRWWV | 0.0876 ± 0.044 | 0.179 ± 0.011 | 0.123 ± 0.02 | 0.243 ± 0.035 | 0.0879 ± 0.0095 | 0.0841 ± 0.034 | 0.182 ± 0.011 | 0.152 ± 0.01
3 | FWVNFLFVLFIL | 0.257 ± 0.023 | 0.233 ± 0.018 | 0.261 ± 0.036 | 0.4 ± 0.027 | 0.263 ± 0.005 | 0.197 ± 0.022 | 0.307 ± 0.02 | 0.296 ± 0.049
4 | GKVSSFVLFHIS | 0.649 ± 0.039 | 0.761 ± 0.033 | 0.622 ± 0.031 | 0.7502 ± 0.0042 | 0.202 ± 0.024 | 0.234 ± 0.021 | 0.475 ± 0.0066 | 0.301 ± 0.013
5 | GKHILLISLNIT | 0.281 ± 0.024 | 0.395 ± 0.067 | 0.252 ± 0.045 | 0.5 ± 0.013 | 0.246 ± 0.022 | 0.251 ± 0.046 | 0.455 ± 0.02 | 0.351 ± 0.0065
6 | ALEIIRLSHRLC | 0.498 ± 0.048 | 0.689 ± 0.022 | 0.618 ± 0.008 | 0.731 ± 0.009 | 0.0821 ± 0.0079 | 0.0791 ± 0.016 | 0.113 ± 0.0018 | 0.127 ± 0.011
7 | LFFLPPCYWFLL | 0.665 ± 0.023 | 0.773 ± 0.024 | 0.5834 ± 0.0043 | 0.732 ± 0.049 | 0.384 ± 0.034 | 0.392 ± 0.03 | 0.571 ± 0.013 | 0.489 ± 0.019
8 | VRVLAALVLCVV | 0.159 ± 0.029 | 0.306 ± 0.021 | 0.217 ± 0.019 | 0.3799 ± 0.00079 | 0.156 ± 0.0081 | 0.189 ± 0.011 | 0.322 ± 0.011 | 0.312 ± 0.0089
9 | MFRSEVSWKLCC | 0.619 ± 0.071 | 0.727 ± 0.015 | 0.624 ± 0.019 | 0.753 ± 0.011 | 0.1344 ± 0.00047 | 0.174 ± 0.025 | 0.409 ± 0.025 | 0.285 ± 0.054
10 | RVDVSVLWNRRS | 0.655 ± 0.045 | 0.75995 ± 0.0007 | 0.669 ± 0.0086 | 0.744 ± 0.028 | 0.284 ± 0.026 | 0.312 ± 0.038 | 0.511 ± 0.013 | 0.4857 ± 0.0047
11 | VVLGLFCVRMGT | 0.541 ± 0.018 | 0.606 ± 0.019 | 0.454 ± 0.031 | 0.6108 ± 0.0044 | 0.418 ± 0.01 | 0.451 ± 0.02 | 0.5718 ± 0.0034 | 0.522 ± 0.031
12 | IVTSFVSPVYIC | 0.396 ± 0.035 | 0.5353 ± 0.003 | 0.456 ± 0.017 | 0.634 ± 0.055 | 0.0637 ± 0.023 | 0.0746 ± 0.014 | 0.0794 ± 0.021 | 0.12 ± 0.029
13 | LLLSLLVLRFFL | 0.37 ± 0.043 | 0.309 ± 0.007 | 0.356 ± 0.047 | 0.536 ± 0.033 | 0.5037 ± 0.0014 | 0.357 ± 0.028 | 0.501 ± 0.019 | 0.423 ± 0.027
14 | PIHILTHTYIGR | 0.669 ± 0.028 | 0.7695 ± 0.00066 | 0.636 ± 0.025 | 0.719 ± 0.013 | 0.643 ± 0.014 | 0.664 ± 0.012 | 0.707 ± 0.013 | 0.738 ± 0.018
15 | KSARLYVTSFLC | 0.571 ± 0.0067 | 0.682 ± 0.035 | 0.623 ± 0.012 | 0.739 ± 0.023 | 0.107 ± 0.012 | 0.123 ± 0.0064 | 0.179 ± 0.02 | 0.194 ± 0.0022
16 | FFGVFIFPVSCR | 0.203 ± 0.013 | 0.226 ± 0.019 | 0.204 ± 0.028 | 0.292 ± 0.01 | 0.174 ± 0.0071 | 0.209 ± 0.032 | 0.291 ± 0.028 | 0.291 ± 0.022
17 | IWVFSVTGWCGC | 0.501 ± 0.0055 | 0.589 ± 0.018 | 0.401 ± 0.022 | 0.55 ± 0.008 | 0.3804 ± 0.0007 | 0.417 ± 0.019 | 0.532 ± 0.016 | 0.452 ± 0.024
18 | VYFASCVVLLMV | 0.159 ± 0.028 | 0.188 ± 0.025 | 0.194 ± 0.029 | 0.3194 ± 0.0019 | 0.159 ± 0.0018 | 0.174 ± 0.017 | 0.251 ± 0.015 | 0.264 ± 0.029
19 | QDQWINTSLELS | 0.677 ± 0.018 | 0.759 ± 0.0081 | 0.676 ± 0.039 | 0.7465 ± 0.0027 | 0.685 ± 0.015 | 0.68 ± 0.035 | 0.711 ± 0.024 | 0.751 ± 0.056
20 | KKKQAILRTLKI | 0.681 ± 0.079 | 0.74 ± 0.026 | 0.663 ± 0.049 | 0.697 ± 0.037 | 0.177 ± 0.045 | 0.197 ± 0.0073 | 0.417 ± 0.013 | 0.406 ± 0.0082
21 | LPSLRPPPCIRA | 0.4441 ± 0.002 | 0.473 ± 0.013 | 0.36 ± 0.038 | 0.54 ± 0.02 | 0.332 ± 0.041 | 0.345 ± 0.015 | 0.513 ± 0.014 | 0.48 ± 0.018
22 | GRGRGGRWGRLC | 0.642 ± 0.05 | 0.739 ± 0.016 | 0.646 ± 0.0085 | 0.75048 ± 0.00029 | 0.201 ± 0.023 | 0.215 ± 0.024 | 0.476 ± 0.023 | 0.269 ± 0.05
23 | IVFLPVLLWFSV | 0.389 ± 0.0069 | 0.411 ± 0.0085 | 0.333 ± 0.032 | 0.474 ± 0.0013 | 0.373 ± 0.019 | 0.297 ± 0.035 | 0.442 ± 0.0084 | 0.407 ± 0.015
24 | CLYATQFWGRYG | 0.69 ± 0.062 | 0.74 ± 0.019 | 0.629 ± 0.025 | 0.7737 ± 0.005 | 0.229 ± 0.0079 | 0.258 ± 0.033 | 0.6 ± 0.014 | 0.434 ± 0.07
25 | RHVFLRIKVLNL | 0.564 ± 0.11 | 0.644 ± 0.051 | 0.52 ± 0.016 | 0.5596 ± 0.0049 | 0.344 ± 0.0053 | 0.397 ± 0.015 | 0.5197 ± 0.0025 | 0.489 ± 0.085
26 | KLKLWSIIKNNA | 0.686 ± 0.06 | 0.749 ± 0.021 | 0.658 ± 0.022 | 0.745 ± 0.015 | 0.181 ± 0.008 | 0.25 ± 0.05 | 0.484 ± 0.053 | 0.385 ± 0.03
27 | RSIVFRVSRRLN | 0.65 ± 0.074 | 0.729 ± 0.019 | 0.671 ± 0.023 | 0.726 ± 0.015 | 0.13 ± 0.0084 | 0.161 ± 0.025 | 0.343 ± 0.044 | 0.277 ± 0.034
28 | LDHGRVVWVVVS | 0.371 ± 0.036 | 0.43 ± 0.021 | 0.3 ± 0.034 | 0.493 ± 0.0092 | 0.174 ± 0.011 | 0.201 ± 0.023 | 0.284 ± 0.008 | 0.278 ± 0.022
29 | QYRLMQKKIVNI | 0.644 ± 0.022 | 0.743 ± 0.048 | 0.647 ± 0.015 | 0.718 ± 0.014 | 0.119 ± 0.013 | 0.147 ± 0.024 | 0.253 ± 0.015 | 0.229 ± 0.059
30 | SWCLLVWIGGVF | 0.288 ± 0.038 | 0.376 ± 0.033 | 0.295 ± 0.027 | 0.451 ± 0.02 | 0.251 ± 0.01 | 0.264 ± 0.03 | 0.432 ± 0.017 | 0.388 ± 0.094
